Residue numbers refer to the chain shown, from its start.
Key:
Assay in all cases: flow cytometry on peptide-pulsed T2 cells, scFv 100 nM
5A = molecular target: 5A
7F = molecular target: 7F
1F = molecular target: 1F
4A = molecular target: 4A
2M = molecular target: 2M
3A = molecular target: 3A
6L = molecular target: 6L

B1: NYA-2047 (scFv)
scFv: GQVQLVESGGGVVQPGRSLRLSCAASGFSIRSYDMHWVRQAPGKGLEWVATISYDGSQKYYADSVKGRFTISRDNSKNTLYLQMSSLRAEDTAVYHCARGSSGHYEAFDIWGQGTLVTVSSGGGGSGGGGSGGGGSQSVLTQPPSVSAAPGQKVTISCSGSSSNIGNWYVSWYQQLPGTAPKLLIYDNNKRPSGIPDRFSGSKSGTSATLGITGLQTGDEADYYCGTWDSSLSAPWVFGGGTKVTVLGAAAGAGGDYKDDDDKGAAAHHHHHH
Q: What does the source list for B1?
A: standardized gMFI (5A): 1.03; standardized gMFI (7F): 3.11

B2: NYA-2044 (scFv)
scFv: B1 scFv with Q2E, V12L, R17G, M35I, Q40L, N75E, S85N
Q: With B2 as the binder, how does the standardized gMFI (5A) read?
A: Its standardized gMFI is 2.2.

B3: NYA-1143 (scFv)
scFv: GEVQLVESGGGVVQPGRSLTPSCSASGFSIRSYDIHWVRLAPGKGLEWVATISYDGSQKYFADSVKGRFTIFRDESENMVYLQMSGLRVEDTAVYHCARGSSGHYEAFDIWGQGTMVTVSSGGGGSGGGGSGGGGSQSVLTQPPSVSAAPGQKVTISCSGSSSNIGNWYVSWYQQLPGTAPKLLIYDNNKRPSGIPDRFSGSKSGTSATLGITGLQTGDEADYYCGTWDSSLSAPWVFGGGTKVTVLGAAAGAGGDYKDDDDKGAAAHHHHHH
Q: B3 was tested. Which standardized gMFI (1F) did it give?
A: The standardized gMFI was 1.77.

Q: What about the standardized gMFI (4A) of the same binder?
A: Its standardized gMFI is 5.91.

Q: What about the standardized gMFI (7F) of the same binder?
A: The standardized gMFI was 4.26.

B4: NYA-1154 (scFv)
scFv: B3 scFv with I35M, L40Q, G103N, W168N, Q175R, T227A
Q: Which results are given for B4?
A: standardized gMFI (1F): 3.98; standardized gMFI (5A): 1.12

B5: NYA-2143 (scFv)
scFv: B3 scFv with Q175R
Q: How did the standardized gMFI (5A) turn out when B5 was run?
A: Its standardized gMFI is 4.3.

Q: What about the standardized gMFI (7F) of the same binder?
A: The standardized gMFI was 5.26.

B6: NYA-2023 (scFv)
scFv: B3 scFv with L40Q
Q: For B6, which standardized gMFI (5A) is on record?
A: The standardized gMFI was 1.21.

B7: NYA-2035 (scFv)
scFv: B3 scFv with Y169K
Q: With B7 as the binder, how does the standardized gMFI (4A) read?
A: Its standardized gMFI is 2.16.

Q: And the standardized gMFI (5A)?
A: Its standardized gMFI is 2.27.

B8: NYA-1163 (scFv)
scFv: B3 scFv with W168N
Q: Which results are given for B8?
A: standardized gMFI (2M): 1.85; standardized gMFI (3A): 1.7; standardized gMFI (6L): 1.74; standardized gMFI (7F): 1.11

B9: NYA-2048 (scFv)
scFv: GQVQLVESGGGVVQPGRSLRLSCAASGFSIRSYDMHWVRQAPGKGLEWVATISYDGSQKYYADSVKGRFTISRDNSKNTLYLQMSSLRAEDTAVYHCARGSSGHYEAFDIWGQGTLVTVSSGGGGSGGGGSGGGGSQSVLTQPPSASGTPGQRVTISCSGSSSNIGNWYVSWYQQLPGTAPKLLIYDNNKRPSGVPDRFSGSKSGTSASLAISGLQSEDEADYYCGTWDSSLSAPWVFGGGTKLTVLGAAAGAGGDYKDDDDKGAAAHHHHHH
Q: For B9, which standardized gMFI (7F) is on record?
A: Its standardized gMFI is 1.46.

B10: NYA-2045 (scFv)
scFv: B9 scFv with Q2E, V12L, R17G, M35I, Q40L, N75E, S85N
Q: With B10 as the binder, how does the standardized gMFI (4A) read?
A: Its standardized gMFI is 1.17.

Q: And the standardized gMFI (5A)?
A: Its standardized gMFI is 0.94.

Source: patent US20230348616A1
